# Results: article PMC3365014 (PLoS ONE, 2012)
# B1: PKCα(271–285), peptide on the array (peptide)
# peptide: ASGWYKLLNQEEGEY
# notes: Protein Kinase C α isoform, residues 271–285; Immobilised on the array; source: bought: Intavis Celluspots peptide array
# Target: T1, p53 C-terminal domain (p53CTD, residues 293–393) (UniProt P04637 293-393)
# T1 construct: p53 C-terminal domain, residues 293–393; 15N-labeled for NMR; also called p53(293–393); full length p53CTD; source: E. coli (C41 for the 15N-labeled protein), purified as described [23]
# T1 sequence (P04637 293-393): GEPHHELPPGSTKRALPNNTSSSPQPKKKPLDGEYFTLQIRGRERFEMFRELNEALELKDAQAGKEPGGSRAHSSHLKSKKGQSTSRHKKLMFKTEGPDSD
# Assay: peptide or protein array; Celluspots peptide array, peptides immobilised; 20 µM p53CTD in 1% milk in TBS-T (50 mM Tris pH 7.5, 110 mM NaCl, 0.05% Tween 20), overnight at 4°C; detected with FL-393 anti-p53 antibody
# Settings: both partners purified
binder,measurement,value
B1,binding result,binds
